Results on 23 molecules are retold here after US20130287807A1, “COMPOUNDS FOR TREATING SYMPTOMS ASSOCIATED WITH PARKINSON'S DISEASE” (priority 2008, published 2013).

A value given as a limit tells only on which side of the number the result lay.

For one assay, the target named is monoclonal antibody MV-001. Nature of the assay: ELISA on peptide-BSA; code 3 = strong binding, OD halfmax 1:>20000. (In general: An ELISA detects its analyte on a solid surface through an enzyme-linked reagent.)
As for APIQFRHC [p4750], the OD halfmax 1:X (dilution factor of the parental antibody at half-maximal OD) (dilutionfactor(1:x)) was > 20000.

Consider NSSELRHC [p4752], for which the OD halfmax 1:X (dilution factor of the parental antibody at half-maximal OD) (dilutionfactor(1:x)) is > 20000.

As for YEFRHAQC [p4748], the OD halfmax 1:X (dilution factor of the parental antibody at half-maximal OD) (dilutionfactor(1:x)) was > 20000.

Regarding SNFRHSVC [p4749], the OD halfmax 1:X (dilution factor of the parental antibody at half-maximal OD) (dilutionfactor(1:x)) is > 20000.

In the case of QLFKHSPC [p4747], the OD halfmax 1:X (dilution factor of the parental antibody at half-maximal OD) (dilutionfactor(1:x)) was > 20000.

Turning to SQSYFKHC [p4755], the OD halfmax 1:X (dilution factor of the parental antibody at half-maximal OD) (dilutionfactor(1:x)) is > 20000.

The next assay has as its target monoclonal antibody MV-001. Nature of the assay: ELISA on peptide-BSA; code 2 = medium binding, OD halfmax 1:4000-20000.
In the case of TGLMFKHC [p4736], the OD halfmax 1:X (dilution factor of the parental antibody at half-maximal OD) (dilutionfactor(1:x)) fell in the range of 4000 to 20000.

As to SQYFPRPC [p4729], the OD halfmax 1:X (dilution factor of the parental antibody at half-maximal OD) (dilutionfactor(1:x)) lay within 4000 to 20000.

As to SAMRHSLC [p4732], the OD halfmax 1:X (dilution factor of the parental antibody at half-maximal OD) (dilutionfactor(1:x)) was in the range of 4000 to 20000.

Regarding LQFKHSTC [p4734], the OD halfmax 1:X (dilution factor of the parental antibody at half-maximal OD) (dilutionfactor(1:x)) lay in the range of 4000 to 20000.

On to QVMRHHAC [p4711], for which the OD halfmax 1:X (dilution factor of the parental antibody at half-maximal OD) (dilutionfactor(1:x)) is 4000 to 20000.

In the case of NELFKHFC [p4727], the OD halfmax 1:X (dilution factor of the parental antibody at half-maximal OD) (dilutionfactor(1:x)) fell in the range of 4000 to 20000.

Turning to ATFRHSTC [p4735], the OD halfmax 1:X (dilution factor of the parental antibody at half-maximal OD) (dilutionfactor(1:x)) is 4000 to 20000.

Turning to VELRHSRC [p4704], the OD halfmax 1:X (dilution factor of the parental antibody at half-maximal OD) (dilutionfactor(1:x)) was in the range of 4000 to 20000.

Consider SSSFFPRC [p4708], for which the OD halfmax 1:X (dilution factor of the parental antibody at half-maximal OD) (dilutionfactor(1:x)) was 4000 to 20000.

Regarding SLMRHSSC [p4721], the OD halfmax 1:X (dilution factor of the parental antibody at half-maximal OD) (dilutionfactor(1:x)) lay within 4000 to 20000.

In the case of ATFRHSPC [p4716], the OD halfmax 1:X (dilution factor of the parental antibody at half-maximal OD) (dilutionfactor(1:x)) was in the range of 4000 to 20000.

On to TYFSHSLC [p4718], for which the OD halfmax 1:X (dilution factor of the parental antibody at half-maximal OD) (dilutionfactor(1:x)) was in the range of 4000 to 20000.

For the molecule YSMRHDAC [p4705], the OD halfmax 1:X (dilution factor of the parental antibody at half-maximal OD) (dilutionfactor(1:x)) lay in the range of 4000 to 20000.

AANYFPRC [p4706]: the OD halfmax 1:X (dilution factor of the parental antibody at half-maximal OD) (dilutionfactor(1:x)) was in the range of 4000 to 20000.

Regarding APMYFPHC [p4717], the OD halfmax 1:X (dilution factor of the parental antibody at half-maximal OD) (dilutionfactor(1:x)) lay in the range of 4000 to 20000.

Take MLPFRHGC [p4731]: the OD halfmax 1:X (dilution factor of the parental antibody at half-maximal OD) (dilutionfactor(1:x)) was in the range of 4000 to 20000.

Take DTYFPRSC [p4703]: the OD halfmax 1:X (dilution factor of the parental antibody at half-maximal OD) (dilutionfactor(1:x)) lay in the range of 4000 to 20000.
